How the values were obtained:
[1] = test system: GFPY40 reporter (GFP containing an amber codon) in HEK293 cells stably expressing pylRS; assay: Amber suppression-dependent GFP expression (GFPY40 reporter), transient transfection, flow cytometry; type: cell-based; details: for GFP MFI, FIG. 8: 1 ug PCR product of each construct, lys azide nnAA; for GFP MFI, FIG. 8 / GFP MFI, FIG. 10 / GFP mean fluorescence intensity (MFI), FIG. 5: three days; for GFP MFI, FIG. 10: cells stably expressing WTpylRS, lys azide; for GFP MFI, FIG. 9: 1 ug GFPY40 reporter and 1 ug tRNA expression plasmid; for GFP mean fluorescence intensity (MFI), FIG. 5: 2 mM lys-azide nnAA
Experimental: (§1) To assess the function of the tRNA variants, an in vitro assay was established where cells are transiently transfected with a tRNA construct and a reporter construct encoding GFP containing an amber codon interrupting its reading frame (GFPY40). HEK293 cells stably expressing pylRS were transiently transfected with various tRNA constructs (1 ug) and the GFPY40 reporter (1 ug). In the absence of elements that support amber suppression, a truncated GFP protein is generated and the cell is not fluorescent. However, the introduction of a functional tRNA and the presence of a nnAA that supports amber suppression allows for the production of full length GFP resulting in fluorescent cells. The level of GFP expression reflects the efficiency of amber suppression and is quantified by flow cytometry. tRNA genes encoding wild type tRNApyl (WT tRNA), or containing mutations in the B-box (B tRNA—SEQ ID No 9), in both the A and B box (A2B tRNA—SEQ ID No 10), or in the A box (A1 tRNA-SEQ ID No 7; or A2 tRNA SEQ ID No 11), all under control of the H1 promoter were generated by site directed mutagenesis and assayed. The H1 promoter ensured that the variants were expressed and allowed us to examine the functional effects of the mutations introduced into the tRNA genes. In addition a sample transfected with GFPY40 alone was generated to establish background GFP levels. The transfected cells were grown in presence of the aminoacid analogue lys azide (2 mM) and incubated for 18 hours. GFP fluorescence was then assayed by flow cytometry and mean fluorescence intensity determined for each sample. Data were analysed with FCS Express and the mean fluorescence intensity of each sample determined using markers that constrain the data set to cells showing fluorescence above negative controls.
To begin to assess whether the tRNA mutations can support expression of the tRNA we assayed tRNA constructs encoding the wild type tRNA in the absence of the H1 promoter. Constructs encoding wild type tRNApyl (WT tRNA) or containing mutations in the B-box (B tRNA—SEQ ID No 9) or in both the A and B box (A2B; A2B tRNA—SEQ ID No 10) were assayed using our in vitro amber suppression assay described above. WT tRNA under control of the H1 promoter (H1-tRNA) was used as a positive control, and in addition one sample was transfected only with the GFPY40 reporter to illustrate background amber suppression in the absence of tRNA. The transfected cells were exposed to 2 mM lys-azide nnAA and cells incubated for three days. GFP expression was examined by flow cytometry and mean fluorescence intensity determined.
Two copies of the WT, B, or A2B tRNA were cloned in tandem to generate a single vector containing two copies of WT, B, or A2B tRNA. To assess the effect of increased gene doses by these constructs, cells expressing WTpylRS were transiently transfected with the tRNA constructs and the GFPY40 reporter construct and GFP expression assayed after two days.
The activity of each construct was assessed by transient transfection into cells stably expressing WT pylRS with the GFPY40 reporter as described above. For this experiment, 1 ug of a PCR product encoding each of the indicated constructs was used. In each case, cells were exposed to the lys azide nnAA for three days and GFP levels assayed by flow cytometry. Mean fluorescence intensities were determined for each sample and plotted (FIG. 8).

[2] = test system: GFPY40 reporter in 3H7 cells; assay: Amber suppression-dependent GFP expression (GFPY40 reporter), transient transfection of 3H7 cells, flow cytometry; type: cell-based; details: three days; for GFP MFI, FIG. 11: 1 ug GFPY40 and 1 ug tRNA expression vector, lys-azide; for GFP MFI in the presence of lys-azide, FIG. 6: 2 mM lys azide
Experimental: as §1, with “controls. […] The constructs thus are functional and may contain the necessary genetic sequence to enable the expression of the tRNA also in the absence of an upstream promoter element such as the H1 promoter.” for “controls.”
Having established that the B mutation introduced into the pyltRNA sequence enabled expression of the tRNA that supported amber suppression we then asked whether this mutation affected the orthogonality of the tRNA and led to the incorporation of natural amino acids. To do this 3H7 cells were transiently transfected with expression constructs encoding WT-tRNA, B-tRNA, H1-tRNA and H1-B tRNA along with the GFPY40 reporter. Transfected cells were grown in the presence of 2 mM lys azide or absence of nnAA as indicated (FIG. 6), and GFP expression assessed by flow cytometry after three days. In addition, a sample transfected only with GFPY40 was examined to determine background amber suppression levels in the absence of tRNA. […] A comparison of GFP expression between the WT tRNA (MFI 33,781) and tRNA B (232,505) lacking extragenic promoter elements confirms that the B mutation generates a functional intragenic promoter. Indeed, the B tRNA construct enabled a seven-fold increase in the level of amber suppression dependent expression of GFP over WT tRNA.
We also tested the utility of a bicistronic tRNA expression construct for its ability to express tRNApyl. Here, the murine tRNA Glu and tRNA Asp were utilized. In each case, multiple repeats of the constructs were generated to increase activity (3×Glu-pyl and 2×Asp-pyl). Here, 3H7 cells were transiently transfected with 1 ug of the reporter construct GFPY40 and 1 ug of the indicated tRNA expression vectors (FIG. 11) and incubated with lys-azide for three days. Data were collected by flow cytometry and mean fluorescence intensities for each sample were plotted. […] The construct consisting of the 7SL WT tRNA (MFI=312) was included as a metric for low efficiency. In addition cell lines containing only the GFPY40 reporter were used as negative controls (MFI=0).

Molecule	GFP MFI, FIG. 8 [1]	GFP MFI, FIG. 10 [1]	GFP MFI, FIG. 11 [2]	GFP MFI, FIG. 9 [1]	GFP mean fluorescence intensity (MFI), FIG. 5 [1]	GFP MFI, single copy tRNA, FIG. 7 ([1]; cells expressing WTpylRS, after two days, single copy)	GFP MFI, tandem copies of tRNA, FIG. 7 ([1]; cells expressing WTpylRS, after two days, single vector containing two copies in tandem)	GFP MFI in the presence of lys-azide, FIG. 6 [2]	GFP MFI in the absence of nnAA, FIG. 6 ([2]; no nnAA)
7SL WT tRNA: WT tRNApyl downstream of the 7SL promoter 5′ region (nucleic acid, Synthetic sequence 7SL tRNA-WT construct, WT tRNApyl downstream of the 7SL promoter 5′ region) DNA: CCCAGTTGATGACGTCACCATACCACAGCTTCTAGTGCTATTCTGCGCCGGTATCCGACCACCAGGAAACCTGATCATGTAGATCGAATGGACTCTAAATCCGTTCAGCCGGGTTAGATTCCCGGGGTTTCCGGACAAGTGCGGTTTTT	106,075	312	312	–	–	–	–	–	–
7SL B tRNA: tRNA-B downstream of the 7SL promoter 5′ region (nucleic acid, Synthetic sequence 7SL tRNA-B construct, tRNA-B downstream of the 7SL promoter 5′ region) DNA: CCCAGTTGATGACGTCACCATACCACAGCTTCTAGTGCTATTCTGCGCCGGTATCCGACCACCAGGAAACCTGATCATGTAGATCGAATGGACTCTAAATCCGTTCAGCCGGGTTCGATTCCCGGGGTTTCCGGACAAGTGCGGTTTTT	265,396	520	520	167,024	–	–	–	–	–
WT tRNA: wild type tRNApyl gene of Methanosarcina mazei without extragenic promoter (nucleic acid, listed as Methanosarcina mazei, expressed or natural sequence, wild type tRNApyl gene of Methanosarcina mazei without extragenic promoter) DNA: GGAAACCTGATCATGTAGATCGAATGGACTCTAAATCCGTTCAGCCGGGTTAGATTCCCGGGGTTTCCG	117,626	–	–	25,459	114,478.1	18,002	20,617	33,781	–
H1-tRNA: WT tRNApyl under control of the H1 promoter, positive control (nucleic acid, Synthetic sequence H1 tRNA-WT construct) DNA: AATATTTGCATGTCGCTATGTGTTCTGGGAAATCACCATAAACGTGAAATCCCTATCAGTGATAGAGACTTATAAGTTCCCTATCAGTGATAGAGACACCAGGAAACCTGATCATGTAGATCGAATGGACTCTAAATCCGTTCAGCCGGGTTAGATTCCCGGGGTTTCCGGACAAGTGCGGTTTTTTT	828,503	453	453	241,901	1,004,228.00	–	–	347,958	33,452
